{"source": "patent US12559525B2", "about": "“Conjugated fibronectin-binding peptides for use in tumor or fibrosis diagnosis and therapy” (priority 2021, dated 2026)", "key": {"[1]": {"molecular_target": "T1, Fib1 (N-terminal 30 kDa fragment of fibronectin, SEQ ID NO: 14) (Homo sapiens, UniProt P02751)", "T1 construct": "6-His (C); made in house", "T1 sequence (P02751 32-290)": "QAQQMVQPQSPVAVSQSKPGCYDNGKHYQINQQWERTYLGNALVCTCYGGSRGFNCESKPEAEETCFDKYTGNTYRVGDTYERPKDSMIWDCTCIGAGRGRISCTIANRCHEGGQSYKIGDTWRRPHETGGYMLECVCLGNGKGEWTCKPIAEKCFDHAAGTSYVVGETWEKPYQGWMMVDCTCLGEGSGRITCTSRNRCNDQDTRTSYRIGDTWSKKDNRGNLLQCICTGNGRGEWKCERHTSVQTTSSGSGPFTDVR", "test": "Affinity towards Fib1 by fluorescence polarization", "format": "binding", "conditions": "fluorescence polarization assay (Example 1, FIG. 1)", "protocol": "FIG. 1: Affinity measurements of Cy5-labelled FnBPA5.1 and FnBPA5 towards the N-terminal 30 kDa fragment of Fibronectin (Fib1) according to SEQ ID NO: 14. Curves display triplicates measurements of fluorescence polarization. Error bars display standard deviations. Analysis was conducted using GraphPad Prism. KD is shown in nM.\nPreferably, said affinity is measurable by using a fluorescence anisotropy assay, using a peptide with N-terminally appended Cy5 label (as described in Preparative Example 1). Detailed protocol for the measurement is included in Example 1.\nFor the affinity measurement experiment, Cy5-FnBPA5.1 (according to SEQ DI NO: 12) and Cy5-FnBPA5 (according to SEQ DI NO: 13) (48 nM) were mixed with different concentrations of Fib 1—N-terminal 30 kDa fragment of fibronectin according to SEQ ID NO: 14 (0 nM-4.5 μM) in PBS pH 7.4. Samples were incubated for 1 h (37° C., 70 rpm) and fluorescence polarization was measured in triplicates using the Pherastar FSX plate reader (BMG Labtech; Optic module: FP 590-50 675-50 675-50). […]"}, "67NR breast tumor": {"tested_on": "67NR breast tumor", "test": "Biodistribution of 111In-labelled peptides in 67NR orthotopic and syngeneic breast tumor model", "format": "in vivo, Balb/c mice", "conditions": "radioisotope-labelled peptide, 67NR orthotopic and syngeneic breast tumor mice", "protocol": "FIG. 5: Biodistribution of ^111In-labeled NODAGA-FnBPA5 and its engineered version NODAGA-FnBPA5.1 in 67NR tumor-bearing mice 24 hours after injection. Results are shown as averages of % injected activity per gram±SD (n=4).\n(§1) Animal studies were carried out according to the Swiss Animal Protection Law under the license AG75700. For tumor implantation, 40′000 67NR cells in 50 μL PBS were injected subcutaneously into the mammary fat pad at the 4th nipple of female Balb/c mice (Charles River, Germany) under isoflurane/oxygen anesthesia. Tumor growth was inspected regularly and tumors were measured using a caliper. Two weeks after tumor implantation, mice were injected via the tail vein with approximately 100-150 kBq of the corresponding ^111In-labelled radiotracers, previously diluted with PBS to a concentration of 1-1.5 MBq/mL. At 24 h p.i., mice were euthanized using CO2. The organs of interest were harvested, weighed and counted by means of gamma counter together with three standards containing 100 μL of the injection solution. The percentage of injected activity per gram (% IA/g) was calculated based on the average of the standards set at 100%."}, "PC-3 tumor": {"tested_on": "PC-3 tumor", "test": "Biodistribution of 111In-labelled peptides in PC-3 xenografts", "format": "in vivo, CD1 nu/nu mice", "conditions": "radioisotope-labelled peptide", "protocol": "FIG. 4: Biodistribution of ^111In-labeled NODAGA-FnBPA5 and its engineered version NODAGA-FnBPA5.1 in PC-3 tumor-bearing CD1 nu/nu mice 24 hours after injection. Results are shown as averages of % injected activity per gram±SD (n=4).\nas §1, with “implantation, 5×10^6 PC-3” for “implantation, 40′000 67NR”, “in 100” for “in 50”, “into both shoulders” for “into the mammary fat pad at the 4th nipple”, “female CD1 nu/nu” for “female Balb/c”, “caliper. Five” for “caliper. Two”"}}, "note": "No end group written: not given here."}
{"substance": "Gln-Val-Thr-Thr-Gly-Ser-Asn-Leu-Val-Glu-Phe-Thr-Glu-Glu-Ser-Leu-Gly-Ie-Val-Thr-Gly-Ala-Val-Ser-Asp-His-Thr-Thr-Val-Glu-Asp-Thr (QVTTGSNLVEFTEESLGIVTGAVSDHTTVEDT; not fully specified) [FnBPA5.1]", "values": [{"measurement": "Affinity for Fib1 compared with FnBPA5", "setting": "[1]", "result": "improved affinity"}, {"measurement": "Uptake in tumors compared with FnBPA5", "setting": "67NR breast tumor", "result": "improved uptake in tumors"}, {"measurement": "Uptake in tumors compared with FnBPA5", "setting": "PC-3 tumor; PC3 xenograft mice", "result": "improved uptake in tumors"}, {"measurement": "Uptake in spleen and liver compared with FnBPA5", "setting": "PC-3 tumor; tumor model not given", "result": "lower uptake in spleen and liver"}]}
